Results published in the Human Domainome abundance scans (Beltran et al. 2025).
± gives the uncertainty stated by the source.

B1: E3 ubiquitin-protein ligase NEDD4-like, residues 539 to 589; numbered along this chain, Q96PU5 (parent)
chain: KTSLNPNDLGPLPPGWEERIHLDGRTFYIDHNSKITQWEDPRLQNPAITGP

Variants of: B1
Test: abundance fitness (aPCA) (normalised: wild type 0, dead -1); higher = more abundant; growth selection in yeast, the domain comes from the species named
Details: Homo sapiens

Variant	abundance fitness
L22Q	0.152 ± 0.064
L22S	0.154 ± 0.054
L22F	-0.23 ± 0.11
L22G	0.085 ± 0.043
L22W	-0.167 ± 0.069
L22N	-0.247 ± 0.12
L22K	0.206 ± 0.044
L22V	0.089 ± 0.043
L22Y	0.07 ± 0.1
L22I	-0.107 ± 0.087
L22A	0.156 ± 0.049
L22R	0.052 ± 0.043
E18W	-0.962 ± 0.1
E18M	-0.444 ± 0.094
E18T	-0.27 ± 0.049
E18C	-0.252 ± 0.053
E18H	-0.68 ± 0.17
E18A	-0.071 ± 0.042
E18P	-0.48 ± 0.048
E18F	-0.736 ± 0.14
E18I	-0.796 ± 0.16
E18G	-0.503 ± 0.06
E18R	-0.159 ± 0.061
E18K	-0.274 ± 0.089

Variant	abundance fitness
E18Q	0 ± 0.093
E18Y	-0.417 ± 0.12
E18V	-0.322 ± 0.053
E18L	-0.802 ± 0.087
P14T	-0.118 ± 0.068
P14E	0.009 ± 0.048
P14M	-0.256 ± 0.076
P14G	-0.205 ± 0.067
P14Y	-0.066 ± 0.098
P14S	-0.042 ± 0.054
P14F	-0.066 ± 0.091
P14Q	-0.17 ± 0.11
P14L	-0.204 ± 0.046
P14K	-0.044 ± 0.044
P14N	-0.355 ± 0.12
P14R	-0.085 ± 0.049
P14V	-0.122 ± 0.056
P14I	-0.227 ± 0.066
P14W	-0.433 ± 0.1
P14H	-0.159 ± 0.067
P14D	0.023 ± 0.084
F27T	-0.089 ± 0.065
F27W	-0.346 ± 0.059
F27K	-0.002 ± 0.072

Variant	abundance fitness
F27R	-0.163 ± 0.046
F27L	-0.039 ± 0.047
F27Q	0.042 ± 0.084
F27P	-0.357 ± 0.058
F27G	-0.197 ± 0.047
F27A	-0.112 ± 0.047
F27D	-0.27 ± 0.07
F27N	-0.201 ± 0.1
F27C	-0.056 ± 0.076
F27S	-0.092 ± 0.051
F27E	0.175 ± 0.07
F27I	-0.163 ± 0.098
F27V	-0.188 ± 0.045
R19V	-0.155 ± 0.053
R19L	-0.354 ± 0.055
R19Q	-0.361 ± 0.12
R19H	-0.423 ± 0.093
R19A	-0.283 ± 0.062
R19E	-0.192 ± 0.069
R19C	-0.138 ± 0.047
R19S	-0.132 ± 0.066
R19F	-0.28 ± 0.088
R19P	-0.969 ± 0.15
R19G	-0.175 ± 0.047

Variant	abundance fitness
R19M	-0.233 ± 0.081
R19T	-0.342 ± 0.063
R19D	-0.421 ± 0.078
R19I	-0.181 ± 0.072
R19N	-0.368 ± 0.13
R19K	-0.198 ± 0.098
R19Y	-0.216 ± 0.08
T26V	-0.077 ± 0.046
T26A	-0.065 ± 0.045
T26R	-0.011 ± 0.045
T26M	-0.125 ± 0.065
T26K	0.056 ± 0.052
T26D	-0.635 ± 0.067
T26H	0.084 ± 0.079
T26P	-0.051 ± 0.073
T26Q	-0.284 ± 0.056
T26C	-0.065 ± 0.085
T26L	-0.136 ± 0.05
T26Y	-0.105 ± 0.094
T26F	-0.287 ± 0.08
T26E	-0.403 ± 0.051
T26S	-0.113 ± 0.054
T26N	-0.187 ± 0.075
T26W	-0.645 ± 0.065

Variant	abundance fitness
T26I	-0.131 ± 0.098
I20L	-0.024 ± 0.062
I20W	-0.228 ± 0.08
I20C	0.192 ± 0.096
I20Y	-0.164 ± 0.051
I20K	0.209 ± 0.075
I20S	0.047 ± 0.064
I20H	-0.125 ± 0.11
I20R	-0.006 ± 0.065
I20Q	-0.148 ± 0.11
I20F	-0.246 ± 0.092
I20G	-0.289 ± 0.052
I20N	-0.467 ± 0.12
I20V	0.093 ± 0.048
I20A	-0.069 ± 0.048
I20P	-0.226 ± 0.1
I20E	0.022 ± 0.089
I20M	-0.131 ± 0.076
Y28G	-0.451 ± 0.043
Y28H	-0.636 ± 0.11
Y28T	-0.626 ± 0.075
Y28R	-0.536 ± 0.061
Y28L	-0.703 ± 0.066
Y28M	-0.991 ± 0.12

Variant	abundance fitness
Y28F	-0.347 ± 0.11
Y28C	-0.902 ± 0.13
Y28N	-0.851 ± 0.067
Y28V	-0.696 ± 0.054
Y28S	-0.399 ± 0.046
Y28K	-0.332 ± 0.089
Y28P	-0.242 ± 0.065
Y28Q	-0.424 ± 0.088
Y28I	-0.273 ± 0.1
Y28W	-0.008 ± 0.063
Y28D	-0.399 ± 0.058
N32F	-0.39 ± 0.095
N32C	-0.312 ± 0.066
N32V	-0.064 ± 0.05
N32I	0.074 ± 0.098
N32L	-0.181 ± 0.06
N32P	-0.594 ± 0.096
N32T	-0.035 ± 0.084
N32A	-0.339 ± 0.073
N32S	-0.086 ± 0.054
N32D	-0.118 ± 0.094
N32M	-0.164 ± 0.063
N32Q	-0.18 ± 0.073
N32Y	-0.24 ± 0.1

Variant	abundance fitness
N32E	-0.03 ± 0.047
N32K	-0.011 ± 0.053
N32R	-0.044 ± 0.053
N32W	-0.395 ± 0.043
N32H	-0.286 ± 0.079
D30Y	-0.358 ± 0.087
D30V	-1.03 ± 0.049
D30L	-0.591 ± 0.053
D30H	0.125 ± 0.092
D30Q	-0.424 ± 0.075
D30A	-0.539 ± 0.053
D30M	-0.753 ± 0.091
D30C	-0.166 ± 0.061
D30G	-0.617 ± 0.049
D30F	-0.546 ± 0.17
D30N	0.166 ± 0.049
D30I	-0.87 ± 0.082
D30S	-0.32 ± 0.053
D30P	-0.953 ± 0.1
D30T	-0.716 ± 0.056
D30K	-0.369 ± 0.089
D30E	-0.24 ± 0.075
D30R	-0.553 ± 0.045
